Literature values as cited in patent publication US7202065B2, “Stabilized liquid preparation of the protease which activates blood coagulation factor VII, or of its proenzyme” (ZLB Behring GmbH, priority 2001, dated 2007).

Conditions: solution containing 20 mM Tris, 0.15 mM NaCI at a pH of 7.5

Substance: proenzyme: proenzyme, which is the non-activated form of the protease which activates blood coagulation factor VII
- loss of activity after enrichment or isolation: rapid loss of activity
